Experimental data as given in paper PMC5856381, “Phenotype-specific recombinant haptoglobin polymers co-expressed with C1r-like protein as optimized hemoglobin-binding therapeutics” (BMC Biotechnology, 2018).

Target: T1, cleavage-site mutated recombinant haptoglobin Hp1S (Q101A, R102A), uncleaved proHp (human)
T1 chain: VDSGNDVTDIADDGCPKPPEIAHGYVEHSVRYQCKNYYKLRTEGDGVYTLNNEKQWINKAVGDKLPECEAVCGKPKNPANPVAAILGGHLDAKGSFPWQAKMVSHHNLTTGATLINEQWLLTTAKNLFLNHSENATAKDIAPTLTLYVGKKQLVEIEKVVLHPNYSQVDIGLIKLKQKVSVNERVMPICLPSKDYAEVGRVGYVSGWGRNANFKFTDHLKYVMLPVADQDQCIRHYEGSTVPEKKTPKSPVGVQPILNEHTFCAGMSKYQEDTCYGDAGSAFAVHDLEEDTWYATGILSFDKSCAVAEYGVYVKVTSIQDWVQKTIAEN
Test: non-reducing SDS-PAGE; Coomassie-stained gel of non-reduced protein samples; disulfide-linked dimers and multimers

B1: cleavage-site mutated recombinant haptoglobin Hp1S (Q101A, R102A), uncleaved proHp (natural protein)
chain: VDSGNDVTDIADDGCPKPPEIAHGYVEHSVRYQCKNYYKLRTEGDGVYTLNNEKQWINKAVGDKLPECEAVCGKPKNPANPVAAILGGHLDAKGSFPWQAKMVSHHNLTTGATLINEQWLLTTAKNLFLNHSENATAKDIAPTLTLYVGKKQLVEIEKVVLHPNYSQVDIGLIKLKQKVSVNERVMPICLPSKDYAEVGRVGYVSGWGRNANFKFTDHLKYVMLPVADQDQCIRHYEGSTVPEKKTPKSPVGVQPILNEHTFCAGMSKYQEDTCYGDAGSAFAVHDLEEDTWYATGILSFDKSCAVAEYGVYVKVTSIQDWVQKTIAEN
modifications: Uncleaved single-chain proHp1S with signal peptide removed; paper's Q101/R102 (precursor Hp1 numbering) = Q160/R161 of P00738; disulfide-linked dimer; N-glycosylated; C-terminal 8xHis tag omitted / …
stoichiometry N: 2
